B1: Membrane-associated tyrosine- and threonine-specific cdc2-inhibitory kinase (Homo sapiens), Q99640 (parent)
chain: MLERPPALAMPMPTEGTPPPLSGTPIPVPAYFRHAEPGFSLKRPRGLSRSLPPPPPAKGSIPISRLFPPRTPGWHQLQPRRVSFRGEASETLQSPGYDPSRPESFFQQSFQRLSRLGHGSYGEVFKVRSKEDGRLYAVKRSMSPFRGPKDRARKLAEVGSHEKVGQHPCCVRLEQAWEEGGILYLQTELCGPSLQQHCEAWGASLPEAQVWGYLRDTLLALAHLHSQGLVHLDVKPANIFLGPRGRCKLGDFGLLVELGTAGAGEVQEGDPRYMAPELLQGSYGTAADVFSLGLTILEVACNMELPHGGEGWQQLRQGYLPPEFTAGLSSELRSVLVMMLEPDPKLRATAEALLALPVLRQPRAWGVLWCMAAEALSRGWALWQALLALLCWLWHGLAHPASWLQPLGPPATPPGSPPCSLLLDSSLSSNWDDDSLGPSLSPEAVLARTVGSTSTPRSRCTPRDALDLSDINSEPPRGSFPSFEPRNLLSLFEDTLDPT

Variants of: B1
Details: with ccnb1_human CCNB1, P14635
Chain of ccnb1_human CCNB1, P14635 (P14635 whole entry): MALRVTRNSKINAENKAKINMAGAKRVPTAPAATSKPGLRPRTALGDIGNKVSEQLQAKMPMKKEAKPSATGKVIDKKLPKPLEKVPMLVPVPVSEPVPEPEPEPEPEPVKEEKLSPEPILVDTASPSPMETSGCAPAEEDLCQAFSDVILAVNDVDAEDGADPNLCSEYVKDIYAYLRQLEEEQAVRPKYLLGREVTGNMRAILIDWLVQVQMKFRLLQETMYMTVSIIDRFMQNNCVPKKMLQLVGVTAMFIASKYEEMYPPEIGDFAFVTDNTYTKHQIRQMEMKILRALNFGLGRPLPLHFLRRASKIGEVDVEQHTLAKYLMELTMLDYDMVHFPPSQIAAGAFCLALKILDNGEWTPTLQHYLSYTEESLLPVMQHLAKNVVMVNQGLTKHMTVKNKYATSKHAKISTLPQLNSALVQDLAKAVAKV

effect of a mutation on the interaction	Variant
decreasing interaction	MLERPPALAMPMPTEGTPPPLSGTPIPVPAYFRHAEPGFSLKRPRGLSRSLPPPPPAKGSIPISRLFPPRTPGWHQLQPRRVSFRGEASETLQSPGYDPSRPESFFQQSFQRLSRLGHGSYGEVFKVRSKEDGRLYAVKRSMSPFRGPKDRARKLAEVGSHEKVGQHPCCVRLEQAWEEGGILYLQTELCGPSLQQHCEAWGASLPEAQVWGYLRDTLLALAHLHSQGLVHLDVKPANIFLGPRGRCKLGDFGLLVELGTAGAGEVQEGDPRYMAPELLQGSYGTAADVFSLGLTILEVACNMELPHGGEGWQQLRQGYLPPEFTAGLSSELRSVLVMMLEPDPKLRATAEALLALPVLRQPRAWGVLWCMAAEALSRGWALWQALLALLCWLWHGLAHPASWLQPLGPPATPPGSPPCSLLLDSSLSSNWDDDSLGPSLSPEAVLARTVGSTSTPRSRCTPRDALDLSDINSEPPRGSFPSFEPAAALSLFEDTLDPT [R486A;N487A;L488A]

Reference: IntAct's records for PubMed 10373560
